# Results taken from US20030044400A1, “Composition and method for treating cells” (priority 2001, published 2003).
# B1: commercial fetuin: commercial fetuin purchased from Sigma, prepared by the Pederson Method (protein, UniProt P12763 19-359, looked up)
# Alpha-2-HS-glycoprotein: IPLDPVAGYKEPACDDPDTEQAALAAVDYINKHLPRGYKHTLNQIDSVKVWPRRPTGEVYDIEIDTLETTCHVLDPTPLANCSVRQQTQHAVEGDCDIHVLKQDGQFSVLFTKCDSSPDSAEDVRKLCPDCPLLAPLNDSRVVHAVEVALATFNAESNGSYLQLVEISRAQFVPLPVSVSVEFAVAATDCIAKEVVDPTKCNLLAEKQYGFCKGSVIQKALGGEDVRVTCTLFQTQPVIPQPQPDGAEAEAPSAVPDAAGPTPSAAGPPVASVVVGPSVVAVPLPLHRAHYDLRHTFSGVASVESSSGEAFHVGKTPIVGQPSIPGGPVRLCPGRIRYFKI
# B2: mature fetuin: fetuin isolated from mature bovine serum (protein, UniProt P12763 19-359, looked up)
# Alpha-2-HS-glycoprotein: B1 Alpha-2-HS-glycoprotein
# B3: human fetuin: human fetuin (Alpha 2-HS glycoprotein) isolated from adult human serum (protein, UniProt P02765 19-300; P02765 341-367, looked up)
# Alpha-2-HS-glycoprotein chain … 1: APHGPGLIYRQPNCDDPETEEAALVAIDYINQNLPWGYKHTLNQIDEVKVWPQQPSGELFEIEIDTLETTCHVLDPTPVARCSVRQLKEHAVEGDCDFQLLKLDGKFSVVYAKCDSSPDSAEDVRKVCQDCPLLAPLNDTRVVHAAKAALAAFNAQNNGSNFQLEEISRAQLVPLPPSTYVEFTVSGTDCVAKEATEAAKCNLLAEKQYGFCKATLSEKLGGAEVAVTCMVFQTQPVSSQPQPEGANEAVPTPVVDPDAPPSPPLGAPGLPPAGSPPDSHVL
# Alpha-2-HS-glycoprotein chain … 2: TVVQPSVGAAAGPVVPPCPGRIRHFKV
# Tests used:
# all the cell lines = assay: Zn or Ba alone on the cell lines; type: cell-based; conditions: all concentrations tested (up to 66 uM)
# Experimental: (§1) Fetuin purified by modified Spiro method was further incubated with Zinc Acetate or Barium Acetate (0.25M) at room temperature for 1 hr. Free ions were removed by repetitive concentration against 20 volumes of PBS three times. Fetuin, Zn-charged fetuin and Ba-charged fetuin (5 uM) and PBS were then separately incubated with LNCaP cells for 4 hr. Percent of cells under apoptosis was determined by Hoechst staining and confirmed by MTS assay. Each data represents the average of two assays. Zn-charged or Ba-charged fetuin may contain free Zn or Ba (about 30 uM). However, all the cell lines are not affected by Zn or Ba alone at all concentrations tested (up to 66 uM).
# LNCaP cells = assay: Fetuin-induced apoptosis, Hoechst staining confirmed by MTS assay; type: cell-based, Human; conditions: for apoptosis-inducing activity in LNCaP cells: fetal vs mature fetuins at the same concentration
# Experimental: The purified fetuin was tested on various cancer cell lines. […] The DNA condensation and breakage of nuclei which are the characteristics for apoptosis were observed by staining the cell with Hoechst dye at 0.1 ug/ml.
# as §1
# Various concentrations of Zn-charged fetuin prepared as described were incubated with cell lines for 6 hr. Percent of cell under apoptosis was determined by Hoechst staining and confirmed by MTS assay. The concentration of Zn-charged fetuin for the induction of 50% of cells under apoptosis (LD50) was determined. Each data represents the average of three assays.
molecule,measurement,setting,value
CC(=O)[O-].CC(=O)[O-].[Ba+2] [Ba],effect of free ion alone on the cell lines,all the cell lines,not affected
CC(=O)[O-].CC(=O)[O-].[Zn+2] [Zn],effect of free ion alone on the cell lines,all the cell lines,not affected
B1,apoptotic activity by method of preparation,LNCaP cells; Pederson Method (Sigma) vs modified Spiro method,did not show apoptotic activity
B2,apoptosis-inducing activity in LNCaP cells,LNCaP cells,no activity inducing apoptosis
B3,apoptosis-inducing activity in LNCaP cells,LNCaP cells,fails to induce apoptosis
